From patent publication US8962263B2, “Methods and compositions for detecting the activation state of multiple proteins in single cells” (The Board of Trustees of the Leland Stanford Junior …, priority 2001, dated 2015)

Tests used:
LFA-1 = LFA-1 (Homo sapiens, UniProt P20701); conditions: cited from earlier work
human naïve T-cells = assay: T cell activation by CD25 and CD69 markers in human naïve T cells; format: cell-based; conditions: combined with CD3/CD28 stimulation
Description: A) Intracellular detection of IL-2, of titration of CD3/CD28, vs. LFA-1, stimulus or CD3, vs. CD28, stimulus for 6, hours. Median Fluorescent intensity is plotted as a visual array. B) Bivariate analysis of CD69, and CD25 expression in unstimulated, CD3/CD28/LFA-1, (0.001, μg/ml, 1:1:1) stimulated, and CD3/CD28, (10 μg/ml) stimulated CD4, T cells. C) Bivariate plot of CD69, expression and intracellular detection of IL-2, post 12, hour stimulation of unstimulated, CD3/CD28, and CD3/CD28/LFA-1, stimulation.
Intracellular and extracellular staining was performed as described for phospho-staining (Perez and Nolan, 2002). […] Four or less color flow cytometry data acquisition was collected on a FACSCalibur machine (Beckton Dickinson, San Jose Calif.) using CELLQuest software, analyzed and presented using FlowJo software (Tree Star, San Carlos, California). […] Data were collected by FACS-Desk software and compensated, analyzed, and presented using FlowJo software. […] Ratios of intracellular flow cytometric measurements were calculated from the following equation where MFI equals mean fluorescent intensity: Log [(MFIexperimental−MFIisotype mAb)/(MFIcontrol−MFlisotype mAb)].

[1] = test system: CD56 CD8 cytotoxic lymphocyte subsets; assay: intracellular perforin and granzyme-A in CD56CD8 subsets of human PBMC by flow cytometry; format: cell-based
Description: IL-2, activated PBMC (shown in A-1 and A-3) were mock-treated (IgG) (A-2) , ICAM-1, (A2), ICAM-2, (A4), or ICAM-3, (A4) treated (10, μg/ml of FC fusion protein) for 12 hrs prior to incubation with target HL60, cells at a 50:1, E:T ratio for 4, hrs. Cells were then prepared for flow cytometry with CD8-CY5PE, CD56-PE surface stains, and perforin-CY5, and granzyme-A-FITC intracellular stains. Cells were gated for CD56^+CD8^low, CD56^+CD8^med, CD56^+, CD8^high, CD56^−, CD8^−, , CD56^−-CD8^high, populations as shown in A-1 and A-3 and population frequencies within appropriate gate. […] Results are representative of 3 independent experiments and were similar at 25:1 and 12.5:1 E:T ratios (data not shown). Manual calibration was performed. […] Perforin percentage was calculated from the following equation where MFI equals mean fluorescent intensity: 100×[(MFIexperimental−MFIisotype mAb)/(MFIcontrol−MFlisotype mAb)] Unstimulated cells were used as control.
Target cell lysis was measured by flow cytoemtric based detection of CFSE labeled HL60 cells. HL60 cells were labeled with 1 μg of CFSE (30 min, 37° C.). Targets were washed twice and mock treated, IL-2 activated (100 U/ml), CD3/CD28 activated (1 μg/ml), or treated with ICAM2 beads or soluble ICAM-1, -2, or 3 (10 μg/ml, 30 min, 37° C.) before plating at 10^4 target cells/well of a 96-well round bottom plate. CTLs were added at 50:1, 25:1, and 12.5:1 E:T ratio, and incubated at 37° C. for 4 hrs. Cells were then processed for multiparameter flow cytometry and intracellular perforin stain. Percent specific lysis was calculated by the following equation: % specific lysis=100-100×(experimental HL60 count/total control HL60 count). HL60 counts were detectable by the CFSE fluorescence. Percent perforin was calculated by the following equation: % perforin=100×[(experimental perforin MFI−isotype mAb MFI)/(total perforin MFI−isotype mAb MFI)]. MFI refers to mean fluorescent intensity of flow cytoemtric based intracellular detection. Cell conjugates were determined by flow cytometry as described (Morgan et al., 2001). Chemical inhibition was done at 10 μM of indicated compound (30 min, 37° C.) prior to stimulation as indicated. All experiments were performed in triplicate.

LFA-1, sequence (P20701 26-1170): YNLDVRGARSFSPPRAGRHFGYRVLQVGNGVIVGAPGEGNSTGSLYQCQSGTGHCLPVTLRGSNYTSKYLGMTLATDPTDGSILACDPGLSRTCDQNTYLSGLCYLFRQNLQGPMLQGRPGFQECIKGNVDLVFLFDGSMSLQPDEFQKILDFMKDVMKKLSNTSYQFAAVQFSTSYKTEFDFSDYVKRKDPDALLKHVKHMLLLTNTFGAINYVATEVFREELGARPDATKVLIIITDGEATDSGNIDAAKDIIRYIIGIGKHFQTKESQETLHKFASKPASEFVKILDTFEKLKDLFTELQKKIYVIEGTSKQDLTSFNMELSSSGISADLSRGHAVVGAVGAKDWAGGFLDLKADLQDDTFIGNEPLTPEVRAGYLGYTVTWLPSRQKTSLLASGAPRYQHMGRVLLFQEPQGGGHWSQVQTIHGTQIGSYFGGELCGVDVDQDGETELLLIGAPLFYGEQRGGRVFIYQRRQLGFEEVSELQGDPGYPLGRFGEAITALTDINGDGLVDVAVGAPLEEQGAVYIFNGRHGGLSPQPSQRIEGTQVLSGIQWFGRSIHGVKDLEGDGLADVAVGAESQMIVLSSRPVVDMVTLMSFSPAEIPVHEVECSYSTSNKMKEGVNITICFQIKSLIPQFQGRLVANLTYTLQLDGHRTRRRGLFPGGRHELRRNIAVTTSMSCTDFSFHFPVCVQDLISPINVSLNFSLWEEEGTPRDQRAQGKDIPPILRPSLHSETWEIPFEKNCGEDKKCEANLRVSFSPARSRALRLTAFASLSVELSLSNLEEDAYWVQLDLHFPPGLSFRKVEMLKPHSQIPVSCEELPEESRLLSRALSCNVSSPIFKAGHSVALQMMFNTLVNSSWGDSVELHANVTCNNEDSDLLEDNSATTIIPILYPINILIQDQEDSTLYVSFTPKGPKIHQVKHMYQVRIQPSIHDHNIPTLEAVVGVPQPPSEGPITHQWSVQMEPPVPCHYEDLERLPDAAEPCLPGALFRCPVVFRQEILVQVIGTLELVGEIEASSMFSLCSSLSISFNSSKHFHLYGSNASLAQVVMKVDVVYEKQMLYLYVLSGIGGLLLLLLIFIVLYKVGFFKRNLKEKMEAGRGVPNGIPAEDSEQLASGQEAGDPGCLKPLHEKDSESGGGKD
LFA-1, sequence (P05107 23-769 partner): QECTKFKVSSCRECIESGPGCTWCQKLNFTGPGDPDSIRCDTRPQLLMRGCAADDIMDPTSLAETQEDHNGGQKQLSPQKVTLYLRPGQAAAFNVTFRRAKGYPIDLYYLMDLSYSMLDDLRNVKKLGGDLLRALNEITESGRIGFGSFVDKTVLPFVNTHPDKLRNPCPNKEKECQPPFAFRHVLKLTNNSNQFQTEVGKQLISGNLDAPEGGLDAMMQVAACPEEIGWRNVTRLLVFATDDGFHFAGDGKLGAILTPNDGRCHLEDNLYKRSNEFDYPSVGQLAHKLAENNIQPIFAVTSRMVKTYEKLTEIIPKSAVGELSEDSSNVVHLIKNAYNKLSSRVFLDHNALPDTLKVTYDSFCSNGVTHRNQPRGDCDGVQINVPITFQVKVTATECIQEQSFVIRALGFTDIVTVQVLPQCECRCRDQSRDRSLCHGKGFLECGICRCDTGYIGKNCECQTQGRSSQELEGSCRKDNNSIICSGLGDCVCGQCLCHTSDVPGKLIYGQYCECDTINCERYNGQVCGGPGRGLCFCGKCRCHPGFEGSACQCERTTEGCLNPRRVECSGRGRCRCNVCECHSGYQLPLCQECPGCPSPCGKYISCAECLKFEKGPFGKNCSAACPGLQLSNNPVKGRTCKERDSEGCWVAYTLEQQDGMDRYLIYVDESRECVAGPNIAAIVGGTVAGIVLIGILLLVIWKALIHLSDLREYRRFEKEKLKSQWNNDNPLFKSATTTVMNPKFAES

B1: ICAM-2: biochemically purified soluble human ICAM-2 protein from retrovirally transduced NIH3T3 cells; ICAM-2-FC fusion also used (protein, UniProt P13598 25-223, looked up)
extracellular domain: KVFEVHVRPKKLAVEPKGSLEVNCSTTCNQPEVGGLETSLDKILLDEQAQWKHYLVSNISHDTVLQCHFTCSGKQESMNSNVSVYQPPRQVILTLQPTLVAVGKSFTIECRVPTVEPLDSLTLFLFRGNETLHYETFGKAAPAPQEATATFNSTADREDGHRNFSCLAVLDLMSRGGNIFHKHSAPKMLEIYEPVSDSQ
modifications: extracellular domain
notes: biochemically purified soluble human ICAM-2 protein from retrovirally transduced NIH3T3 cells; ICAM-2-FC fusion also used
- concentration inducing LFA-1 mediated adhesion (LFA-1; bulk cellular adhesion assay): 1.3 µM
- fold lower ICAM-2 soluble protein concentration compared with P1 (LFA-1): 48 fold
- lowering of the CD3/CD28 stimulus threshold (human naïve T-cells): 10,000 fold
- granzyme-A negative population ([1]; CD56+CD8high population): 58.3%
- changes in intracellular perforin or granzyme-A ([1]; CD56+CD8low population): no significant changes
- frequency of the perforin negative population ([1]; CD56+CD8med population): 21.5%
